Target: T1, Gal3 (Homo sapiens, UniProt P17931)
T1 construct: made in house
Experiment: Binding of 488-Gal3 to HUVEC
Details: 488-Gal3 20 μg/ml, mAb 0.5 μM
Experimental: For glycophenotyping, ECs were incubated with biotinylated L-PHA, LEL, SNA, MAL II, PNA and HPA (all from Vector). Recombinant Gal1 was purified as described in Ilarregui et al. (2009) Nat Immunol 10, 981-991. For binding assays, ECs were incubated for 1 h at 4° C. with dyLight 488-labeled galectins in the absence or presence of lactose, sucrose, anti-Gal1 or isotype control mAb or following transfection with GnT5, GCNT1 or scrambled siRNA. Cells were analyzed on a FACSAria (BD Biosciences). For segregation, ECs were treated with Gal1 for 1 h, fixed and incubated for 1 h with anti-human VEGFR2 antibody (55B11; Cell Signaling) as described in Ilarregui et al. (2009) Nat Immunol 10, 981-991. Cells were analyzed on a Nikon laser confocal microscope (Eclipse E800).
DyLight 488-conjugated Gal1 (488-Gal1) was obtained using DyLight labeling kit (Thermo Scientific). Inhibitors of Jak2-STAT3 (AG490; 5 μM), Jnk-SAP (SP600125; 20 μM), p38 (SB202190; 10 μM), HIF-1α (3 μM) and O-glycosylation (benzyl-α-Ga1NAc; 2 mM) were from Calbiochem. Inhibitors of Erk1/2 (U0126; 5 μM), PI(3)K-Akt (Ly294002; 2 μM) and NF-κB (BAY 11-7082; 1 μM), ROS (N-acetyl-cysteine; NAC), N-glycosylation (swainsonine; 3 μM), lactose or sucrose (30 mM) were from Sigma. PNGase F (25 U/μg protein) was from New England Biolabs. […]

T1 sequence (P17931 whole entry, species assumed): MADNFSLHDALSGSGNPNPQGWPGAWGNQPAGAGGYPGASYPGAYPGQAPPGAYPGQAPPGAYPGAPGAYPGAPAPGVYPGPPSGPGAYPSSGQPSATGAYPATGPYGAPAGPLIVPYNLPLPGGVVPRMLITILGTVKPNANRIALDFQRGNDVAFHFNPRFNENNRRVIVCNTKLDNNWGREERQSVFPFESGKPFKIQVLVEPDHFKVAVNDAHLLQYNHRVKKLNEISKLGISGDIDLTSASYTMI

B1: anti-Gal1 monoclonal antibody 8F4F8G7 (antibody, V domains shown)
VH: EVQLQQSVAEFVRPGASVRLSCTASGFNIKNTYIHWVRQRPEQGLEWIGKIDPANGNTKYVPEFQGKATMTADTSSNTVYLHLSSLTSEDTAIYYCVDGYYGWYFAVWGTGTTVTVSS
VL: QAVVTQESALTTSPGETVTLTCRSSTGAVTTSNYANWVQEKPDHLFTGLIGATNNRAPGVPARFSGSLIGDKAVLTITGAQTEDEAIYFCALWYRNHFIFGSGTKVTVL
notes: Murine hybridoma mAb (deposit PTA-10535), lambda light chain; also called 14-19 8F4-F8-G7; clone 8F4.8F.67
effect on binding of Gal3 to the EC surface: did not interfere

From patent US10456465B2, “Compositions, kits, and methods for the diagnosis prognosis, monitoring, treatment and modulation of post-transplant lymphoproliferative disorders and hypoxia associated angiogenesis disorders using galectin-1” (Dana-Farber Cancer Institute, Inc., priority 2009, dated 2019)
